Measurements reported in the Human Domainome abundance scans (Beltran et al. 2025).
± gives the uncertainty stated by the source.

B1: Zinc finger MYM-type protein 3, residues 589 to 668; numbered along this chain, Q14202 (parent)
chain: LSCHYCHSLFSGKPEVLDWQDQVFQFCCRDCCEDFKRLRGVVSQCEHCRQEKLLHEKLRFSGVEKSFCSEGCVLLYKQDF

Variants of: B1
Assay: abundance fitness (aPCA) (normalised: wild type 0, dead -1); higher = more abundant; growth selection in yeast, the domain comes from the species named
Settings: Homo sapiens

Variant	abundance fitness
LSCHYCHSLFSGKPEVLDWQDQVFQFCCRDCCEDFKRLRGVVSQPEHCRQEKLLHEKLRFSGVEKSFCSEGCVLLYKQDF [C45P]	-1.1 ± 0.46
LSCHYCHSLFSGKPEVLDWQDQVFQFCCRDCCEDFKRLRGVVSQFEHCRQEKLLHEKLRFSGVEKSFCSEGCVLLYKQDF [C45F]	-0.356 ± 0.26
LSCHYCHSLFSGKPEVLDWQDQVFQFCCRDCCEDFKRLRGVVSQQEHCRQEKLLHEKLRFSGVEKSFCSEGCVLLYKQDF [C45Q]	-1 ± 0.49
LSCHYCHSLFSGKPEVLDWQDQVFQFCCRDCCEDFKRLRGVVSQWEHCRQEKLLHEKLRFSGVEKSFCSEGCVLLYKQDF [C45W]	-0.983 ± 0.3
LSCHYCHSLFSGKPEVLDWQDQVFQFCCRDCCEDFKRLRGVVSQSEHCRQEKLLHEKLRFSGVEKSFCSEGCVLLYKQDF [C45S]	-0.942 ± 0.17
LSCHYCHSLFSGKPEVLDWQDQVFQFCCRDCCEDFKRLRGVVSQAEHCRQEKLLHEKLRFSGVEKSFCSEGCVLLYKQDF [C45A]	-0.666 ± 0.2
LSCHYCHSLFSGKPEVLDWQDQVFQFCCRDCCEDFKRLRGVVSQREHCRQEKLLHEKLRFSGVEKSFCSEGCVLLYKQDF [C45R]	-0.742 ± 0.13
LSCHYCHSLFSGKPEVLDWQDQVFQFCCRDCCEDFKRLRGVVSQGEHCRQEKLLHEKLRFSGVEKSFCSEGCVLLYKQDF [C45G]	-0.603 ± 0.095
LSCHYCHSLFSGKPEVLDWQDQVFQFCCRDCCEDFKRLRGVVSQLEHCRQEKLLHEKLRFSGVEKSFCSEGCVLLYKQDF [C45L]	-0.867 ± 0.19
LSCHYCHSLFSGKPEVLDWQDQVFQFCCRDCCEDFKRLRGVVSQTEHCRQEKLLHEKLRFSGVEKSFCSEGCVLLYKQDF [C45T]	-0.641 ± 0.26
LSCHYCHSLFSGKPEVLDWQDQVFQFCCRDCCEDFKRLRGVVSQEEHCRQEKLLHEKLRFSGVEKSFCSEGCVLLYKQDF [C45E]	-1.07 ± 0.29
LSCHYCHSLFSGKPEVLDWQDQVFQFCCRDCCEDFKRLRGVVSQYEHCRQEKLLHEKLRFSGVEKSFCSEGCVLLYKQDF [C45Y]	-1.18 ± 0.4
LSCHYCHSLFSGKPEVLDWQDQVFQFCCRDCCEDFKRLRGVVSQDEHCRQEKLLHEKLRFSGVEKSFCSEGCVLLYKQDF [C45D]	-0.658 ± 0.22
LSCHYCHSLFSGKPEVLDWQDQVFQFCCRDCCEDFKRLRGVVSSCEHCRQEKLLHEKLRFSGVEKSFCSEGCVLLYKQDF [Q44S]	0.39 ± 0.12
LSCHYCHSLFSGKPEVLDWQDQVFQFCCRDCCEDFKRLRGVVSTCEHCRQEKLLHEKLRFSGVEKSFCSEGCVLLYKQDF [Q44T]	0.959 ± 0.066
LSCHYCHSLFSGKPEVLDWQDQVFQFCCRDCCEDFKRLRGVVSVCEHCRQEKLLHEKLRFSGVEKSFCSEGCVLLYKQDF [Q44V]	0.767 ± 0.072
LSCHYCHSLFSGKPEVLDWQDQVFQFCCRDCCEDFKRLRGVVSWCEHCRQEKLLHEKLRFSGVEKSFCSEGCVLLYKQDF [Q44W]	0.53 ± 0.095
LSCHYCHSLFSGKPEVLDWQDQVFQFCCRDCCEDFKRLRGVVSYCEHCRQEKLLHEKLRFSGVEKSFCSEGCVLLYKQDF [Q44Y]	1.13 ± 0.34

Variant	abundance fitness
LSCHYCHSLFSGKPEVLDWQDQVFQFCCRDCCEDFKRLRGVVSRCEHCRQEKLLHEKLRFSGVEKSFCSEGCVLLYKQDF [Q44R]	0.889 ± 0.075
LSCHYCHSLFSGKPEVLDWQDQVFQFCCRDCCEDFKRLRGVVSQCEACRQEKLLHEKLRFSGVEKSFCSEGCVLLYKQDF [H47A]	-0.169 ± 0.13
LSCHYCHSLFSGKPEVLDWQDQVFQFCCRDCCEDFKRLRGVVSQCECCRQEKLLHEKLRFSGVEKSFCSEGCVLLYKQDF [H47C]	0.345 ± 0.4
LSCHYCHSLFSGKPEVLDWQDQVFQFCCRDCCEDFKRLRGVVSQCMHCRQEKLLHEKLRFSGVEKSFCSEGCVLLYKQDF [E46M]	-0.631 ± 0.27
LSCHYCHSLFSGKPEVLDWQDQVFQFCCRDCCEDFKRLRGVVSQCLHCRQEKLLHEKLRFSGVEKSFCSEGCVLLYKQDF [E46L]	-0.116 ± 0.09
LSCHYCHSLFSGKPEVLDWQDQVFQFCCRDCCEDFKRLRGVVSQCYHCRQEKLLHEKLRFSGVEKSFCSEGCVLLYKQDF [E46Y]	-0.354 ± 0.38
LSCHYCHSLFSGKPEVLDWQDQVFQFCCRDCCEDFKRLRGVVSQCQHCRQEKLLHEKLRFSGVEKSFCSEGCVLLYKQDF [E46Q]	0.281 ± 0.21
LSCHYCHSLFSGKPEVLDWQDQVFQFCCRDCCEDFKRLRGVVSQCPHCRQEKLLHEKLRFSGVEKSFCSEGCVLLYKQDF [E46P]	0.996 ± 0.28
LSCHYCHSLFSGKPEVLDWQDQVFQFCCRDCCEDFKRLRGVVSQCTHCRQEKLLHEKLRFSGVEKSFCSEGCVLLYKQDF [E46T]	0.24 ± 0.22
LSCHYCHSLFSGKPEVLDWQDQVFQFCCRDCCEDFKRLRGVVSQCDHCRQEKLLHEKLRFSGVEKSFCSEGCVLLYKQDF [E46D]	0.228 ± 0.23
LSCHYCHSLFSGKPEVLDWQDQVFQFCCRDCCEDFKRLRGVVSQCRHCRQEKLLHEKLRFSGVEKSFCSEGCVLLYKQDF [E46R]	-0.741 ± 0.16
LSCHYCHSLFSGKPEVLDWQDQVFQFCCRDCCEDFKRLRGVVSQCCHCRQEKLLHEKLRFSGVEKSFCSEGCVLLYKQDF [E46C]	0.271 ± 0.2
LSCHYCHSLFSGKPEVLDWQDQVFQFCCRDCCEDFKRLRGVVSQCWHCRQEKLLHEKLRFSGVEKSFCSEGCVLLYKQDF [E46W]	-0.245 ± 0.14
LSCHYCHSLFSGKPEVLDWQDQVFQFCCRDCCEDFKRLRGVVSQCSHCRQEKLLHEKLRFSGVEKSFCSEGCVLLYKQDF [E46S]	0.385 ± 0.11
LSCHYCHSLFSGKPEVLDWQDQVFQFCCRDCCEDFKRLRGVVSQCKHCRQEKLLHEKLRFSGVEKSFCSEGCVLLYKQDF [E46K]	0.233 ± 0.26
LSCHYCHSLFSGKPEVLDWQDQVFQFCCRDCCEDFKRLRGVVSQCAHCRQEKLLHEKLRFSGVEKSFCSEGCVLLYKQDF [E46A]	0.932 ± 0.072
LSCHYCHSLFSGKPEVLDWQDQVFQFCCRDCCEDFKRLRGVVSQCGHCRQEKLLHEKLRFSGVEKSFCSEGCVLLYKQDF [E46G]	0.085 ± 0.093
